Measured values as given in US20260207704A1, “STAPLED PEPTIDES AND METHODS THEREOF” (priority 2022, published 2026).
*1 amine or outer side, *2 acyl side, *3 side chain or, on linkers, in order; H or OH if unused. Bridges are numbered along the chain shown (N, C = ends). Primed or numbered codes have the meaning given here. [ ]: non-standard residue; d: D form. The star is where a group is joined. PyrS2(6) = (S)-3-amino-1-((pent-4-en-1-yloxy)carbonyl)pyrrolidine-3-carboxylic acid, stapled with another olefin-containing amino acid residue through the olefin group, O=C(OCCCC=[*:3])N1CC[C@@](N[*:1])(C(=O)[*:2])C1; B5(4) = 2-amino-2-(pent-4-en-1-yl)hept-6-enoic acid, stapled through each of its two olefin groups with other olefin-containing amino acid residues, O=C(C(CCCC=[*:3])(CCCC=[*:4])N[*:1])[*:2]; PyrS2″ = (S)-3-amino-1-((pent-4-en-1-yloxy)carbonyl)pyrrolidine-3-carboxylic acid (olefin stapling residue), C=CCCCOC(=O)N1CC[C@@](N[*:1])(C(=O)[*:2])C1; PyrS2 = (S)-3-amino-1-((pent-4-en-1-yloxy)carbonyl)pyrrolidine-3-carboxylic acid, olefin staple residue, C=CCCCOC(=O)N1CC[C@@](N[*:1])(C(=O)[*:2])C1; PyrS2(3) = (S)-3-amino-1-((pent-4-en-1-yloxy)carbonyl)pyrrolidine-3-carboxylic acid, olefin residue, C=CCCCOC(=O)N1CC[C@@](N[*:1])(C(=O)[*:2])C1; PyrS2(5) = (S)-3-amino-1-((pent-4-en-1-yloxy)carbonyl)pyrrolidine-3-carboxylic acid, C=CCCCOC(=O)N1CC[C@@](N[*:1])(C(=O)[*:2])C1; B5(5) = 2-amino-2-(pent-4-en-1-yl)hept-6-enoic acid (two olefin arms), C=CCCCC(CCCC=C)(N[*:1])C(=O)[*:2]; B5(3) = 2-amino-2-(pent-4-en-1-yl)hept-6-enoic acid, two olefin arms, C=CCCCC(CCCC=C)(N[*:1])C(=O)[*:2]; TriAzLys″ = azidolysine residue closed into triazole staple, O=C([C@H](CCCCn1cc([*:3])nn1)N[*:1])[*:2]; Me2Mal = 2-carboxy-2-methylpropanoyl group on the Lys side chain, CC(C)(C(=O)O)C(=O)*; 2F3MeF″ = aromatic residue, Cc1cccc(C[C@H](N[*:1])C(=O)[*:2])c1F; Phe(3-COOH) = N[C@@H](Cc1cccc(C(=O)O)c1)C(=O)O; 2F3MeF = Cc1cccc(C[C@H](N[*:1])C(=O)[*:2])c1F; Phe(2-Cl) = N[C@@H](Cc1ccccc1Cl)C(=O)O; Bta = N[C@@H](Cc1csc2ccccc12)C(=O)O; αAllylPro = C=CC[C@@]1(C(=O)O)CCCN1; BztA = aromatic amino acid residue; tBuAla = CC(C)(C)C[C@H](N)C(=O)O; 3Thi = N[C@@H](Cc1ccsc1)C(=O)O; Suc = O=C(CCC(=O)[*:2])[*:1]; 2F3MeF(4) = Phe analogue; Nle = CCCC[C@H](N)C(=O)O; Orn = NCCC[C@H](N)C(=O)O; TfeGA = not defined here; AsnR = not defined here; GlnR = not defined here; sAla = not defined here; PL3 = not defined here; B5 = not defined here; Aib = CC(C)(N)C(=O)O

B1: I-3 (peptide)
peptide: Ac-[αAllylPro]DL[B5(4)]DDAAFK[PyrS2(6)][3Thi][Bta][GlnR]-NH2
modifications: bridge 10-14; not fully specified (bridges); printed as Ac-PL3-Asp-Leu-B5-Asp-Asp-Ala-Ala-Phe-Lys*3-PyrS2-3Thi-BztA-GlnR*3-NH2; reading uncertain
B2: I-122 (peptide)
peptide: Ac-[αAllylPro]D[tBuAla][B5(4)]D[TfeGA]LAFK[PyrS2″][2F3MeF][Bta][GlnR]A-NH2
modifications: bridge 10-14; not fully specified (bridges); reading uncertain; also: Lys*3 and GlnR*3 marked *3
B3: I-124 (peptide)
peptide: Ac-[αAllylPro]D[tBuAla][B5(4)]D[TfeGA]VAFK[PyrS2″][2F3MeF][Bta][GlnR]A-NH2
modifications: bridge 10-14; not fully specified (bridges); reading uncertain; also: Lys*3 and GlnR*3 marked *3
B4: I-125 (peptide)
peptide: Ac-[αAllylPro]D[tBuAla][B5(4)]D[TfeGA]VAFK[PyrS2″][2F3MeF][Bta][GlnR]A-NH2
modifications: bridge 10-14; not fully specified (bridges); reading uncertain; also: Lys*3 and GlnR*3 marked *3
B5: I-20 (peptide)
peptide: Ac-[PL3]D[tBuAla][B5(4)]D[Phe(3-COOH)]AAF[TriAzLys″][PyrS2″][3Thi][Bta][sAla]-NH2
modifications: triazole 10-14; not fully specified (bridges); printed as Ac-PL3-Asp-Npg-B5-Asp-3COOHF-Ala-Ala-Phe-TriAzLys*3-PyrS2-3Thi-BztA-sAla*3-NH2; reading uncertain
B6: I-22 (peptide)
peptide: Ac-[PL3]D[tBuAla][B5(4)]D[Phe(3-COOH)]AAF[TriAzLys″][PyrS2″][2F3MeF][Bta][sAla]-NH2
modifications: triazole 10-14; not fully specified (bridges); printed as Ac-PL3-Asp-Npg-B5-Asp-3COOHF-Ala-Ala-Phe-TriAzLys*3-PyrS2-2F3MeF-BztA-sAla*3-NH2; reading uncertain
B7: I-40 (peptide)
peptide: Ac-[αAllylPro]D[tBuAla][B5(5)]D[Phe(3-COOH)]AAF[AsnR][PyrS2(5)][3Thi][Bta][Orn]-NH2
modifications: bridge 10-14; reading uncertain; also: PL3/B5/PyrS2 staple links not placed, printed as Ac-PL3-Asp-Npg-B5-Asp-3COOHF-Ala-Ala-Phe-AsnR*3-PyrS2-3Thi-BztA-Orn*3-NH2
B8: I-45 (peptide)
peptide: Ac-[αAllylPro]D[tBuAla][B5(5)]D[Phe(3-COOH)]KAFL[PyrS2(5)][3Thi][Bta]K-NH2
modifications: not fully specified (residue 6); printed as Ac-PL3-Asp-Npg-B5-Asp-3COOHF-[isophthalate]-Lys-Ala-Phe-Leu-PyrS2-3Thi-BztA-Lys-NH2; also: isophthalate unit next to Lys7, attachment not given here, PL3/B5/PyrS2 staple links not placed
B9: I-46 (peptide)
peptide: Ac-[αAllylPro]D[tBuAla][B5(5)]D[Phe(3-COOH)]KAFL[PyrS2(5)][3Thi][Bta]K-NH2
modifications: not fully specified (residues 6, 7, bridges); printed as Ac-PL3-Asp-Npg-B5-Asp-3COOHF-[succinate]-Lys-Ala-Phe-Leu-PyrS2-3Thi-BztA-Lys-NH2
B10: I-47 (peptide)
peptide: Ac-[αAllylPro]D[tBuAla][B5(5)]D[Phe(3-COOH)]KAFL[PyrS2(5)][3Thi][Bta]K-NH2
modifications: not fully specified (residues 6, 7, bridges); printed as Ac-PL3-Asp-Npg-B5-Asp-3COOHF-[Me2Mal]-Lys-Ala-Phe-Leu-PyrS2-3Thi-BztA-Lys-NH2
B11: I-48 (peptide)
peptide: Ac-[αAllylPro]D[tBuAla][B5(4)]D[Phe(3-COOH)]KAFL[PyrS2(6)][3Thi][Bta]K-NH2
modifications: not fully specified (residues 6, 7, bridges); printed as Ac-PL3-Asp-Npg-B5-Asp-3COOHF-[diphenate]-Lys-Ala-Phe-Leu-PyrS2-3Thi-BztA-Lys-NH2
B12: I-51 (peptide)
peptide: Ac-[αAllylPro]D[tBuAla][B5(4)]D[Phe(3-COOH)]K(Suc)AFL[PyrS2(6)][Phe(2-Cl)][Bta]K-NH2
modifications: not fully specified (residue 6, bridges); printed as Ac-PL3-Asp-Npg-B5-Asp-3COOHF-[succinate]-Lys-Ala-Phe-Leu-PyrS2-2ClF-BztA-Lys-NH2
B13: I-52 (peptide)
peptide: Ac-[αAllylPro]D[tBuAla][B5(3)]D[Phe(3-COOH)]K(Me2Mal)AFL[PyrS2(3)][Phe(2-Cl)][Bta]K-NH2
modifications: not fully specified (residue 6, bridges); printed as Ac-PL3-Asp-Npg-B5-Asp-3COOHF-[Me2Mal]Lys-Ala-Phe-Leu-PyrS2-2ClF-BztA-Lys-NH2
B14: I-67 (peptide)
peptide: Ac-[αAllylPro]D[tBuAla][B5]D[Phe(3-COOH)][Aib]AFK[PyrS2][3Thi][Bta][GlnR]A-NH2
modifications: staple 1-4, 4-11; lactam 10-14; not fully specified; printed as Ac-PL3-Asp-Npg-B5-Asp-3COOHF-Aib-Ala-Phe-Lys*3-PyrS2-3Thi-BztA-GlnR*3-Ala-NH2; reading uncertain
B15: I-69 (peptide)
peptide: Ac-[αAllylPro]D[tBuAla][B5(3)]D[Phe(3-COOH)][Aib]AFK[PyrS2(3)][2F3MeF″][Bta][GlnR]A-NH2
modifications: bridge 10-14; not fully specified (bridges); printed as Ac-PL3-Asp-Npg-B5-Asp-3COOHF-Aib-Ala-Phe-Lys*3-PyrS2-2F3MeF-BztA-GlnR*3-Ala-NH2; reading uncertain
B16: I-70 (peptide)
peptide: Ac-[αAllylPro]D[tBuAla][B5(3)]D[Phe(3-COOH)][Nle]AFK[PyrS2(3)][3Thi][Bta][GlnR]A-NH2
modifications: bridge 10-14; not fully specified (bridges); printed as Ac-PL3-Asp-Npg-B5-Asp-3COOHF-nLeu-Ala-Phe-Lys*3-PyrS2-3Thi-BztA-GlnR*3-Ala-NH2; reading uncertain
B17: I-74 (peptide)
peptide: XDQXDXKAFKXXXQA
modifications: not fully specified; Ac-PL3-Asp-GlnR**3-B5-Asp-3COOHF-Lys**3-Ala-Phe-Lys*3-PyrS2-3Thi-BztA-GlnR*3-Ala-NH2
B18: I-77 (peptide)
peptide: Ac-[αAllylPro]D[tBuAla][B5(4)]D[Phe(3-COOH)]AAFK[PyrS2(6)][2F3MeF(4)][Bta][GlnR]A-NH2
modifications: staple 1-4 (inferred); bridge 10-14; not fully specified (residue 10, bridges); printed as Ac-PL3-Asp-Npg-B5-Asp-3COOHF-Ala-Ala-Phe-Lys*3-PyrS2-2F3MeF-BztA-GlnR*3-Ala-NH2; reading uncertain; also: -CH=CH- in each staple reduced to -CH2-CH2-
B19: I-78 (peptide)
peptide: XDQXDXKAFKXXXQA
modifications: not fully specified; Ac-PL3-Asp-GlnR**3-B5-Asp-3COOHF-Lys**3-Ala-Phe-Lys*3-PyrS2-3Thi-BztA-GlnR*3-Ala-NH2
B20: I-80 (peptide)
peptide: Ac-[αAllylPro]N[tBuAla][B5(4)]D[Phe(3-COOH)]AAFK[PyrS2(6)][3Thi][Bta][GlnR]A-NH2
modifications: staple 1-4 (inferred); bridge 10-14; not fully specified (residue 10, bridges); printed as Ac-PL3-Asn-Npg-B5-Asp-3COOHF-Ala-Ala-Phe-Lys*3-PyrS2-3Thi-BztA-GlnR*3-Ala-NH2; reading uncertain
B21: I-82 (peptide)
peptide: Ac-[PL3]D[tBuAla][B5]N[Phe(3-COOH)]AAFK[PyrS2″][3Thi][BztA][GlnR]A-NH2
modifications: staple 1-4 (inferred); bridge 10-14; not fully specified (residue 10, bridges); printed as Ac-PL3-Asp-Npg-B5-Asn-3COOHF-Ala-Ala-Phe-Lys*3-PyrS2-3Thi-BztA-GlnR*3-Ala-NH2; reading uncertain
B22: I-84 (peptide)
peptide: Ac-[PL3]N[tBuAla][B5]D[Phe(3-COOH)]SAFK[PyrS2″][3Thi][BztA][GlnR]A-NH2
modifications: staple 1-4 (inferred); bridge 10-14; not fully specified (residue 10, bridges); printed as Ac-PL3-Asn-Npg-B5-Asp-3COOHF-Ser-Ala-Phe-Lys*3-PyrS2-3Thi-BztA-GlnR*3-Ala-NH2; reading uncertain
B23: I-88 (peptide)
peptide: Ac-[PL3]N[tBuAla][B5]D[Phe(3-COOH)]QAFK[PyrS2″][3Thi][BztA][GlnR]A-NH2
modifications: staple 1-4 (inferred); bridge 10-14; not fully specified (residue 10, bridges); printed as Ac-PL3-Asn-Npg-B5-Asp-3COOHF-Gln-Ala-Phe-Lys*3-PyrS2-3Thi-BztA-GlnR*3-Ala-NH2; reading uncertain; also: Lys10 and GlnR14 marked *3

The binders below were run against beta-catenin (human) (assay: fluorescence polarization).
Chain of beta-catenin (human) (B6V8E6 146-665 limits assumed): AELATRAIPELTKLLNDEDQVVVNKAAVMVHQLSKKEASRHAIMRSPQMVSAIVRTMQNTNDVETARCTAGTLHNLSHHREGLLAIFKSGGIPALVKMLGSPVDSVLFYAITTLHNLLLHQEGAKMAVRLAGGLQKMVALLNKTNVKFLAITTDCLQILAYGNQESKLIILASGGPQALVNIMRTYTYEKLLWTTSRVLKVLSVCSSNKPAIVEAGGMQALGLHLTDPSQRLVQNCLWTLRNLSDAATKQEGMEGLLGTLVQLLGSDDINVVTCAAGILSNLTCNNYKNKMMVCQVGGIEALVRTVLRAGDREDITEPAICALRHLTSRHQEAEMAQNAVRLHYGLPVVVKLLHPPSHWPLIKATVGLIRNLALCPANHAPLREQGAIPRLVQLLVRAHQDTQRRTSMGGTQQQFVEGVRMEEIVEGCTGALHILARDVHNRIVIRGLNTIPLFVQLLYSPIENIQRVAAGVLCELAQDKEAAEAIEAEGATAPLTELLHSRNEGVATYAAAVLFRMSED
B1 was tested, and the IC50 was less than 50 nM. B2 was tested, and the IC50 was less than 50 nM. For B3, the IC50 was less than 50 nM. In the case of B4, the IC50 is reported as less than 50 nM. For B5, the IC50 was less than 50 nM. Work on B6 yielded an IC50 of less than 50 nM. With B7 the IC50 was greater than 1000 nM. B8 gave an IC50 of less than 50 nM. B9 showed an IC50 of less than 50 nM. Work on B10 yielded an IC50 of less than 50 nM. For B11, the IC50 was less than 50 nM. B12 showed an IC50 of less than 50 nM. With B13 the IC50 was less than 50 nM. With B14 the IC50 was less than 50 nM. B15 gave an IC50 of less than 50 nM. B16 showed an IC50 of less than 50 nM. Binder B17 has an IC50 of less than 50 nM. B18 gave an IC50 of less than 50 nM. Binder B19 has an IC50 of less than 50 nM. In the case of B20, the IC50 is reported as less than 50 nM. B21 was tested, and the IC50 was less than 50 nM. B22 was tested, and the IC50 was less than 50 nM. Binder B23 has an IC50 of less than 50 nM.

Each binder was assayed against beta-catenin (human) (assay: cell-based or functional assay).
In the case of B1, the NanoBRET Abs IC50 (bin >3.0 uM) is reported as less than 10000 nM. In the case of B2, the NanoBRET Abs IC50 is reported as greater than 10000 nM. B3 showed a NanoBRET Abs IC50 greater than 10000 nM. With B4 the NanoBRET Abs IC50 was greater than 10000 nM.
